Laboratory results published in the nanobody polyreactivity screen of Harvey et al. (2022).

Experiment: yeast display, Sf9 membrane polyspecificity reagent, FACS + sequencing; frameworks hold sequencing errors
How it was run: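 Galactose induction of a Saccharomyces cerevisiae BJ5465 synthetic nanobody display library ran 36–48 hours. The cells were then stained for 1 hour at 4 °C with 10% biotinylated, detergent-solubilized Sf9 membrane reagent, pulled down on streptavidin microbeads and FACS-sorted into low and high (top ~1%) gates on expression and reagent-binding fluorescence. Labels for polyreactivity follow the gate of origin.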

Row | Sequence | polyreactivity (PSR sort gate)
1 | QVQLVESGGGLVQAGGSLRLSCAASGSIFRWYAMGWYRQAPGKEREFVAAISWSGTSTYYADSVKGRFTISRDNAKNTVYLQMNSLKPEDTAVYYCNALLPSSRAPDYGYWGQGTQVTVSS | high polyreactivity
2 | QVQQQESGGGLVQEGGSLRLSCAASGYIFDYYYMGWYRQAPGKEREFVATISEGSTTNYADSVKGRFTTSRDNSKNTVYLQMNSLKPEDTAVYYCATDTVYGNDYWGQGTHVTVSS | low polyreactivity
3 | QVQHVESGGGLVQAGGSLRLSCAASGFIFAWYTMGWDRQAPGKERELVAAISRSGVRTYYADSVKGRFTISRDNAKNTVYLQMNSLKPEDTAVYYCAVDWYPTMDYWGQGTQVTLSS | high polyreactivity
4 | QVQLVESGGGLVQAGGSLRLSCAASGRTFSYNAMGWYRQAPGKERELVAVISASGGSTYYADSVKGRFTISRDNAKNTVYLQMNSLKPEDTAVYYCAKRRSPVERYDYWGQGTQVTVSS | low polyreactivity
5 | QVQLVESGGGLVEAGGSLRLSSAASGINFKMYAMVWSRQAPGKERELVADITYVGSTKYADSVKGRFTISRDNAKNTFYLQMNSLKPEDTAVYYFNAAQYYWYEYDYWGQGTQVTVSS | low polyreactivity
6 | QVQLVESGGGLVQAGGSLRLSCAASGFTFVYYAMGWYRQAPGKERELVATISGNGGRTYYADSVKGRFTISRDNAKNTVYLQMNSLIPDDTAVYYCATDVGFGRKQRPHRPGYGYWGQGTLVTVSS | low polyreactivity
7 | QVQLVESGGGLVQAGGSLRLSCAASGITFVRNAMGWYRQAPGKEREFVAAISGSGVSTYADSVKGRFTISRDNAKNTVDEQMISLKPEDTAVYYCARDFPWSYAWYDYWGQGTLVTVSS | low polyreactivity
8 | QVQLVESGGGLVQAGGSLRLICAASGRIFGRNAMGWYRQAPGKERELVAVITWRGGSTYYADSVKGRFTISRDNAKNTVYLQMNSLKPEDTAVYYCAADTSRYYLPRYRTDYWGQGTQVTVSS | high polyreactivity
9 | QVQLVESGGGLVQAGGSLRLSCAASGSTFSPNAMGWYRQAPGKERELVAAITYRGANTYYADSVKGRFTISRDNAKNTVYLQMNSLKPEDTAVYYCAAEYAYHHVGFGYWGQGTLVTVSS | low polyreactivity
10 | QVQLVESGGGLVQAGGSLRLSCAASGFTLLIYAKGWYRQAPGKERELVAAITWRGSGTYYADSVKGRFTISRDIAKNSVYLQMNSLKPEDTAVYYCAARTARRTYDYWGQGTQVTVSS | low polyreactivity
11 | QVQLVESGGGLVQAGGSLRLSCAASGSIFSTYAMGWYRQAPGKERELVAAISQGGSSTYYADSVKGRFTISRDNAKNTVYLQMNSLKPEDTAVYYCATPYSWYHRVYGYDYWGQGTQVTVSS | high polyreactivity
12 | QVQLVESGGGLVQARGSLRLSCAASGSIFDGNAMGWYRQAPGKERELVAAITWRGTRTYYADSVKGRFTISRDNAKNTVYLQMNSLKPEDTAVYYCNKKWYPYLEHDYWGQGTQGTVSS | high polyreactivity
13 | QVQLVESGGGLVQAGGSLRLSCAASGLTFYSYAMGWYRQAPGKERELVAAISKSGGSTYYADSVKGRFTISRDNAKNSVYLQMNSLKPEDTAVYYCNALTKTGTPPDYDYWGQGTQVTVSS | high polyreactivity
14 | QVQLVESGGGLVQAGGSLRLSCAATGSIFYAYAMGWYRQAPGKERELVAGISGGGSTNYADSVKGRFTISRDNAKNTVYLQMNSLKPEDTAVYYCAADGWLSATYDGLPDSDSWGQGTQVTVSS | high polyreactivity
15 | QVQLVESGGGLVQAGGSLRLSCAASGSIIGLYVMGWYRQAPGKERELVAAISWSGGSTYYADSVKGRFTISRDNAKNTVYLQMNSLKPEDTAVYYCAARVYSVADYYYWGQGTQVTVSS | low polyreactivity
16 | QVQLVESGGGLVQAGGSLRLSCAASGITFVFYAMGWYRQAPGKARELVATISYRGTSTYYADSVKGRFTISRDNAKNTVYLQMNSLKPEDTAVSYCAGDTYIYYKTGYGYWGQGTQVTVSS | low polyreactivity

Row | Sequence | polyreactivity (PSR sort gate)
17 | QVQLVESGGGLVQAGGSLRLSCAASGLIFYNYAMGWYRQAPGKERELVAAITSGGSTYYADSVKGGFTISRDNAKNTVYLQMNSLKPEDTAVYYWAADLTYTVPFDYWGQGTQVTVSS | high polyreactivity
18 | QVQLVESGGGLVQSGGSLRLSCAASGSTFQSNAMGWYRQAPGKERELVATITQSGATTYYADSVKGRFTISRDNAKNTVYLQMNSLKPEDSAVYYCNVDTYQKRWFWLDLDGGYWGQGTQVTVSS | low polyreactivity
19 | QVQLVESGGGLVQAGGSLRLICAASGRTFWNYAMGWYRQAPGKERELVAVISFSDGSTYYADSVKGRFTISRDNAKNTVYLQMNSLKPEDTAVYYGAAKGPRRWGSGFDYWGQGTQVTVSS | low polyreactivity
20 | QVQLVESCGGLVQAGGSLRLSCADYGRTFGKYAMGWYRQSPGKERELVAAITYRGGTTYYEDSVKGRFTISRDNAKNTLYLQMNSLKPEDTAVYYCATAPGRRYDWGQGTQVTVSS | high polyreactivity
21 | QVQLVESGGGLVQAGGSLRLSCAASGSILYTNAMGWYRQAPGKERELVAAITTSGASTYYADSVKGRFTISRDNAKNTVYLQMNSLKPEDTAVYYCAAPSRYRYYWGNYWGQGTQVTVSS | high polyreactivity
22 | QVQLVESGGGLVQAGGSLRLSCAASGSIFCDNAMGWYRQEPGKERELVAAISIVGSTSYADSVKGRFTISRDNANNTVYLQMNSLKPEDTAVYYCAAENVRSDTGFDYWGQGTQVTVSS | low polyreactivity
23 | QVQLEESGGGLVQAGGRLRLSCAASGSTFVRSVMGSYRAAPGKERELVAAISEGGGSTYYADSVKGRFTISRDNAKNTVYLQMNSLKPEDTAVYYCAAEGYFRYWYGTIQYDYWGQGTQVTVSS | high polyreactivity
24 | QVQLVESGGGLVQAGGSLRLSCAASGLIFYHNARGWYRQAPGKERELVAAITASGGSTYYADSVKGRFTISRDNAKNTVYFQMNSLKPEDTAVYYCAADGPLDSDLDYWGQGTQVTVSS | low polyreactivity
25 | QVQLVESGGGLVQAGGSLRISSAASGFIFSLNAMGWYRQAPGKERELVASITRSGTRTYYADSVKGRFTISRDNAKKTDFLQRNSLKPEATAVDYCAARTKRSYEYQAFYYWGQGTQVTVSS | high polyreactivity
26 | QVQLVESGGGLVQAGGSLRLSCAASGITFEPYAMGWYRQAPGKEREFVADITWSGGSTYYADSVKGRFTISRDNAKNTVYLQMNSLKPEDTAVYYCAADGWTSYWSDYWGQGTQVTVAS | low polyreactivity
27 | QVQLVESGGGLVQAGGSLRLSCAASGRIFGGNAMGWYRPAPGKERELVGGISRRGGSTYYADSVKGRFTISRDNAKNTVYLQMYSLKPEDTAVYYCNAYYRYSVFAEKYDYWGQGTQVTVSS | high polyreactivity
28 | QVQLVESGGGLVQAGGSLRLSCAASGRTFGFNVMGWYRQAPGKERELVAAISWSGGSTYYADSVKGRFTISRDNAKNTVYLQLNSLKPADTAVYYCNKRYVHRYGYWGQGTQVTVSS | low polyreactivity
29 | QVQLVESGGGLVQAGGSLRLSCAASGFTFPQNAKGWYRQAPGKERELVAAITNGGTTYYADSVKGRFTISRDNAKNTVYLQMNSLKPEDTAVYYCAAYTYRYGSFKYGYWGQGTQVTVSS | low polyreactivity
30 | QVQLVESGGGLVHAGGSLRLSCAASGRTFYAYAMGWYRQAPGKERELVAAISWRGGDTYYADSVKGRFTISRDNAKNTVYLQMNSVKPEVTAVYFCCADVYRYSVYLIRNPMDYWGQGTQVTVSS | low polyreactivity
31 | QVQLVESGGGLVQAGGSLRLSCAASGSIFVEYAMGWYRQAPGQERELVAAISYSGSSTNYADSVKGRFTISRDNAKNTVYLQINSLKPEDTAVYYSNADGTGGEQKPYYELDYWGQGTQVTVSS | low polyreactivity
32 | QVQLVESGGGLVQAGGSLRLSCAASGRIFVYNAMGWYRQAPGKEREFVASINWSGSSTYADSVKGRFTISRDNAKNTVYLQMNSLKQEDTAVYYCAARRWRYEAYRSQYDYGYWGQGTQVTVSS | low polyreactivity
